Test results taken from US20200392228A1 (PANDION OPERATIONS, published 2020).
Where a chain is given by its changes, count along the chain named.

T1: mouse MAdCAM expressed on cells (mouse, UniProt Q61826 22-405)
T1 construct: whole, on cells
T1 sequence (looked up): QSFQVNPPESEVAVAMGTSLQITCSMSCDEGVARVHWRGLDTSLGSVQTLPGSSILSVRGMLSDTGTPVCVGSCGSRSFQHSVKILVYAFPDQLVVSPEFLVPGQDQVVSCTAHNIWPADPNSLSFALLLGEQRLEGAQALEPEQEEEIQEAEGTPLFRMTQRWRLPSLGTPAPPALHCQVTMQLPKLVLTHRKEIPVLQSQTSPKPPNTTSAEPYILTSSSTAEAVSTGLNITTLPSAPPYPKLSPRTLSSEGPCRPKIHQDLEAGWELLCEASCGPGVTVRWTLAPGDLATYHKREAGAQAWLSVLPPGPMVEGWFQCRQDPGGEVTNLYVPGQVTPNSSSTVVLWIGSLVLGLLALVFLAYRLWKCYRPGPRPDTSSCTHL

T2: human MAdCAM expressed on cells (human, UniProt Q13477 19-382)
T2 construct: whole, on cells; also called MADCAM1
T2 sequence (looked up): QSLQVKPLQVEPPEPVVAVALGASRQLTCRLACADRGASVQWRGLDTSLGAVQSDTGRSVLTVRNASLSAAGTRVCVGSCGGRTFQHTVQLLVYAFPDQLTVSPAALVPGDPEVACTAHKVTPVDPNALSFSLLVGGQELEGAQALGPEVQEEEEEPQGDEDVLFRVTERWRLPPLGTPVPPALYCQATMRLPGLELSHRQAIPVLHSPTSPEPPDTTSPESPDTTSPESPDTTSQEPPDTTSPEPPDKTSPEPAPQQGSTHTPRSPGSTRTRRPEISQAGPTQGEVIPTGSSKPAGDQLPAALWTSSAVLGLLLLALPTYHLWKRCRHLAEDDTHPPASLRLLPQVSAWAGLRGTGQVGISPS

T3: human MAdCAM protein (human, UniProt Q13477 19-317)
T3 construct: used for Octet, SPR, ELISA and plate capture; construct not described; also called recombinant human MAdCAM; soluble monomeric human MAdCAM
T3 sequence (looked up): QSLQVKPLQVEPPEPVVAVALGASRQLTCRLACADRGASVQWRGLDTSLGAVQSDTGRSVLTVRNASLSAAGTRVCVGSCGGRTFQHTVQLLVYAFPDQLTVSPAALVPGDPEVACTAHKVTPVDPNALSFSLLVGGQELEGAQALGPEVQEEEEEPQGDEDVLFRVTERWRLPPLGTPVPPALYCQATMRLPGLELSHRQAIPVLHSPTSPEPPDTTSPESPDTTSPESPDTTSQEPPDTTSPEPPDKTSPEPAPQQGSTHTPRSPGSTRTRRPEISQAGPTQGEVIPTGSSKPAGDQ

B1: MAdCAM antibody Clone ID 52 of Table 7 (IgG) (antibody, V domains shown)
VH: EVQLLESGGGLVQPGGSLRLSCAASGFTFDDYGMSWVRQAPGKGLEWVSYISSSSSYIYYADSVKGRFTISRDNSKNTLYLQMNSLRAEDTAVYYCAREIAAAGFYGMDVWGQGTTVTVSS
VL: not shown
notes: IgG format
B2: MAdCAM antibody Clone ID 15 of Table 7 (IgG) (antibody, V domains shown)
VH: QVQLVQSGAEVKKPGASVKVSCKASGYTFTGYYMHWVRQAPGQGLEWMGWIGPNSGDTNYAQKFQGRVTMTRDTSTSTVYMELSSLRSEDTAVYYCARDLDHNWYFDLWGRGTLVTVSS
VL: DIVMTQSPLSLPVTPGEPASISCRSSQSLLHSNGYNYLDWYLQKPGQSPQLLIYSSSNRAPGVPDRFSGSGSGTDFTLKISRVEAEDVGVYYCMQALHIPLTFGGGTKVEIK
notes: IgG format
B3: MAdCAM antibody Clone ID 13 of Table 7 (IgG) (antibody, V domains shown)
VH: QVQLVQSGAEVKKPGASVKVSCKASGYTFTTYYMHWVRQAPGQGLEWMGGFDPEDGETIYAQKFQGRVTMTRDTSTSTVYMELSSLRSEDTAVYYCARHAVAGAVGAGYYYYGMDVWGQGTMVTVSS
VL: DIQMTQSPSSLSASVGDRVTITCRASESISNWLAWYQQKPGKAPKLLIYAASTLQSGVPSRFSGSGSGTDFTLTISSLQPEDFATYYCQQSYSVPFTFGPGTKVDIK
notes: IgG format
B4: MAdCAM antibody Clone ID 42 of Table 7 (IgG) (antibody, V domains shown)
VH: QVQLVQSGAEVKKPGASVKVSCKASGYTLTDYYMHWVRQAPGQGLEWMGIINPSGGSTSYAQKFQGRVTMTRDTSTSTVYMELSSLRSEDTAVYYCAREEYSSSSGYFDYWGQGTLVTVSS
VL: B3 VL with E27Q, S28G, N31S, T53S, V94T, F96L, P100Q, D105E
notes: IgG format
B5: MAdCAM antibody Clone ID 39 of Table 7 (IgG) (antibody, V domains shown)
VH: QVQLVQSGAEVKKPGASVKVSCKASGYTFTSYYMHWVRQAPGQGLEWMAWMNPNSGNTGYAQKFQGRVTMTRDTSTSTVYMELSSLRSEDTAVYYCARDYDFWSGSLGYWGQGTLVTVSS
VL: B3 VL with E27Q, S28G, W32Y, T53S, V94T, F96W, P100Q, D105E
notes: IgG format
B6: MAdCAM antibody Clone ID 43 of Table 7 (IgG) (antibody, V domains shown)
VH: QVQLVQSGAEVKKPGASVKVSCKASGYTFTSYGISWVRQAPGQGLEWMGWMHPKSGDTGLTQKFQGRVTMTRDTSTSTVYMELSSLRSEDTAVYYCARDTPYYYYGMDVWGQGTTVTVSS
VL: B3 VL with E27Q, N31S, T53S, F96I, P100Q, D105E
notes: IgG format
B7: MAdCAM antibody Clone ID 41 of Table 7 (IgG) (antibody, V domains shown)
VH: QVQLVQSGAEVKKPGASVKVSCKASGYTFTSYYMHWVRQAPGQGLEWMGIINPSGGSTSYAQKFQGRVTMTRDTSTSTVYMELSSLRSEDTAVYYCARDTGYSYGRYYYYGMDVWGQGTLVTVSS
VL: B3 VL with E27Q, S30G, N31R, A50D, T53N, V94I, F96I, P100Q, D105E
notes: IgG format
B8: MAdCAM antibody Clone ID 25 of Table 7 (IgG) (antibody, V domains shown)
VH: EVQLLESGGGLVQPGGSLRLSCAASGFTFSNAWMSWVRQAPGKGLEWVSTIVGNGGATYYADSVKGRFTISRDNSKNTLYLQMNSLRAEDTAVYYCARDNPLRWQGMDVWGQGTLVTVSS
VL: B3 VL with E27Q, S28D, W32Y, A34N, T53S, V94I, F96P
notes: IgG format
B9: MAdCAM antibody Clone ID 38 of Table 7 (IgG) (antibody, V domains shown)
VH: QVQLVQSGAEVKKPGASVKVSCKASGYTFTDYFLHWVRQAPGQGLEWMGWMNPTSGNTGYAQKFQGRVTMTRDTSTSTVYMELSSLRSEDTAVYYCAREGEGSGFDYWGQGTLVTVSS
VL: DIQMTQSPSSLSASVGDRVTITCRASQGINSWLAWYQQKPGKAPKLLIYDASNLETGVPSRFSGSGSGTDFTLTISSLQPEDFATYYCQQSYSTPLTFGGGTKVEIK
notes: IgG format
B10: MAdCAM antibody Clone ID 21 of Table 7 (IgG) (antibody, V domains shown)
VH: EVQLVESGGGLVKPGGSLRLSCAASGFTFSSYWMSWVRQAPGKGLEWVSYISGDSGYTNYAAPVKGRFTISRDDSKNTLYLQMNSLKTEDTAVYYCARANSSGWYDWYFDLWGRGTLVTVSS
VL: not shown
notes: IgG format
B11: MAdCAM antibody Clone ID 16 of Table 7 (IgG) (antibody, V domains shown)
VH: EVQLLESGGGLVQPGGSLRLSCAASGFTFDDYAMHWVRQAPGKGLEWVSYIDASGTTIYYADSVKGRFTISRDNSKNTLYLQMNSLRAEDTAVYYCAKDQAAAGYWYFDLWGRGTLVTVSS
VL: DIQMTQSPSSLSASVGDRVTITCQASQDISNYLNWYQQKPGKAPKLLIYKASTLESGVPSRFSGSGSGTDFTLTISSLQPEDFATYYCQQSYSTPITFGQGTRLEIK
notes: IgG format
B12: MAdCAM antibody Clone ID 19 of Table 7 (IgG) (antibody, V domains shown)
VH: EVQLLESGGGLVQPGGSLRLSCAASGFTFEDYAMHWVRQAPGKGLEWVSYLNSDGGSTSYADSVKGRFTISRDNSKNTLYLQMNSLRAEDTAVYYCAKDYCTNGVCAFDYWGQGTLVTVSS
VL: B11 VL with Q24R, D28S, N31T, K50D, T53N, S56T, S93T, T94I
notes: IgG format
B13: MAdCAM antibody Clone ID 37 of Table 7 (IgG) (antibody, V domains shown)
VH: EVQLLESGGGLVQPGGSLRLSCAASGFTFSDYGMPWVRQAPGKGLEWVSAISGSGGSTYYADSVKGRFTISRDNSKNTLYLQMNSLRAEDTAVYYCARDGGWQPAAILDYWGQGTLVTVSS
VL: B9 VL with N30S, S31N, W32N, A34N, G100Q
notes: IgG format
B14: MAdCAM antibody Clone ID 18 of Table 7 (IgG) (antibody, V domains shown)
VH: QVQLVQSGAEVKKPGSSVKVSCKASGYTFTNYYMHWVRQAPGQGLEWMGGIIPIVDRVKYAQKFQGRVTITADESTSTAYMELSSLRSEDTAVYYCAKGRYTVNYYYGMDVWGQGTTVTVSS
VL: B11 VL with S26N, K50R, T53K, S56A, Y92S, S93E, T94I, I96Y, T97S, R103K
notes: IgG format
B15: MAdCAM antibody Clone ID 59 of Table 7 (IgG) (antibody, V domains shown)
VH: B13 VH with T28S, P35H
VL: B9 VL with N30S, S31N, W32N, A34N
notes: IgG format
B16: MAdCAM antibody Clone ID 44 of Table 7 (IgG) (antibody, V domains shown)
VH: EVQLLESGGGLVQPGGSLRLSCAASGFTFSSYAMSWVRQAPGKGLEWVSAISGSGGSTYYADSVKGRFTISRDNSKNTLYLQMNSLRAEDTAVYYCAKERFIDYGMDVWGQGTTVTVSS
VL: DIQMTQSPSSLSASVGDRVTITCQASQDISNYLNWYQQKPGKAPKLLIYAASSLQSGVPSRFSGSGSGTDFTLTISSLQPEDFATYYCQQTYSGWTFGPGTKVDIK
notes: IgG format
B17: MAdCAM antibody Clone ID 57 of Table 7 (IgG) (antibody, V domains shown)
VH: EVQLLESGGGLVQPGGSLRLSCAASGFSVSSNYMSWVRQAPGKGLEWVAGISYDGSSKPYADSVKGRFTISRDNSKNTLYLQMNSLRAEDTAVYYCARSRGIAARPLQHWGQGTLVTVSS
VL: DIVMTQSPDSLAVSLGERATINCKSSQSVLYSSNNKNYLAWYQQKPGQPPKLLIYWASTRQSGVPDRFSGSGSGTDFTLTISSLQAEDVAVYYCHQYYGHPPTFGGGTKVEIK
notes: IgG format
B18: MAdCAM antibody Clone ID 34 of Table 7 (IgG) (antibody, V domains shown)
VH: QVQLVQSGAEVKKPGASVKVSCKASGYTFTGYYIHWVRQAPGQGLEWMGWMNPNSGNTGYAQKFQGRVTMTRDTSTSTVYMELSSLRSEDTAVYYCARDPGFLGYCSGGSCYDGWFDPWGQGTLVTVSS
VL: DIQMTQSPSSLSASVGDRVTITCRASQSISSYLHWYQQKPGKAPKLLIYAASSLQSGVPSRFSGSGSGTDFTLTISSLQPEDFATYYCQQSYTAPYTFGQGTKLEIK
notes: IgG format
B19: MAdCAM antibody Clone ID 1 of Table 6 (scFv) (scFv)
scFv: EVQLLESGGGLVQPGGSLRLSCAASGFTFSSYGMHWVRQAPGKGLEWVAVISDDGSDKYYADSVKGRFTISRDNSKNTLYLQMNSLRAEDTAVYYCTTSKYYYYYGMDVWGQGTTVTVSSGGGGSGGGGSGGGGSGGGGSDIQMTQSPSSLSASVGDRVTITCQASQDISKSLNWYQQKPGKAPKLLIYAASSLQSGVPSRFSGSGSGTDFTLTISSLQPEDFATYYCQQGYSTPLTFGGGTKVEIK

Molecular target: T1, mouse MAdCAM expressed on cells
Test: cell binding

binding result	Binder
no binding	B1
no binding	B2
no binding	B3
no binding	B4
no binding	B5
no binding	B6
no binding	B7
no binding	B8
no binding	B9
no binding	B10
no binding	B11
no binding	B12
no binding	B13
no binding	B14
no binding	B15
no binding	B16
no binding	B17
no binding	B18

Molecular target: T2, human MAdCAM expressed on cells
Test: cell binding

binding result	Binder
binds	B1
binds	B2
binds	B3
binds	B4
binds	B5
binds	B6
binds	B7
binds	B8
binds	B9
binds	B10
binds	B11
binds	B12
binds	B13
binds	B14
binds	B15
binds	B16
binds	B17
binds	B18

Molecular target: T2, human MAdCAM expressed on cells
Test: cell binding
Remark: another data set of the same source

binding result	Binder
binds	B19

Molecular target: T3, human MAdCAM protein
Test: Octet

binding result	Binder
binds	B19
